According to paper PMC3535332 (Nature Communications, 2012):

Legend:
SEC = target: the molecule itself; test: SEC
purified protein [1] = substrate: NC(=O)c1ccc[n+]([C@@H]2O[C@H](COP(=O)(O)OP(=O)(O)OC[C@H]3O[C@@H](n4cnc5c(N)ncnc54)[C@H](O)[C@@H]3O)[C@@H](O)[C@H]2O)c1; test: purified protein; conditions: ATP as donor, 20 mM MgCl2, 100 mM Tris-HCl pH 8.0, 37 °C
purified protein [2] = substrate: Nc1ncnc2c1ncn2[C@@H]1O[C@H](COP(=O)(O)OP(=O)(O)OP(=O)(O)O)[C@@H](O)[C@H]1O; test: purified protein; conditions: 5 mM NAD+, 40 mM MgCl2, 100 mM Tris-HCl pH 8.0, 37 °C

B1: purified C5orf33 protein (His-tagged Δ62C5orf33 protein) (enzyme, human, UniProt Q4G0N4-1 63-442, looked up)
chain: DGGFRPSRVVVVAKTTRYEFEQQRYRYAELSEEDLKQLLALKGSSYSGLLERHHIHTKNVEHIIDSLRNEGIEVRLVKRREYDEETVRWADAVIAAGGDGTMLLAASKVLDRLKPVIGVNTDPERSEGHLCLPVRYTHSFPEALQKFYRGEFRWLWRQRIRLYLEGTGINPVPVDLHEQQLSLNQHNRALNIERAHDERSEASGPQLLPVRALNEVFIGESLSSRASYYEISVDDGPWEKQKSSGLNLCTGTGSKAWSFNINRVATQAVEDVLNIAKRQGNLSLPLNRELVEKVTNEYNESLLYSPEEPKILFSIREPIANRVFSSSRQRCFSSKVCVRSRCWDACMVVDGGTSFEFNDGAIASMMINKEDELRTVLLEQ
SEC
  stoichiometry N: 2
Purified protein [1]
  Km: 22 ± 1 µM
Purified protein [2]
  Km: 1700 ± 300 µM
